Patent publication US20210122824A1 (ADAGENE, published 2021)
Where a chain is given by its changes, count along the chain named. Each block holds one binder with its values, some of them ahead of it.

Key:
[1] = biological target: T1, mouse PD-L1-Fc fusion protein (mouse, UniProt Q9EP73 19-238, limits assumed); test: BLI (ForteBio), PD-L1 on AHC sensor, Fab in solution
T1 construct: not shown: Fc part

[2] = biological target: T2, human PD-L1-Fc fusion protein (Sino Biological Cat #10084-H02H) (human, UniProt Q9NZQ7 19-239); test: BLI (ForteBio), PD-L1-Fc on AHC sensor, Fab in solution
T2 construct: bought; not shown: Fc part of the bought fusion
T2 sequence (Q9NZQ7 19-239 limits assumed): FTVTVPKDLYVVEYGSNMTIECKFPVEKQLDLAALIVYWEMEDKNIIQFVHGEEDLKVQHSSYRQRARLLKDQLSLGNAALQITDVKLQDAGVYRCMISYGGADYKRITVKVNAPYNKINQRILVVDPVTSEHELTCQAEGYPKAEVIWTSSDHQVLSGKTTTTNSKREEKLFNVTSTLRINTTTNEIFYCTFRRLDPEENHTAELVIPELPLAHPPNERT

T1 sequence (Q9EP73 19-238 limits assumed): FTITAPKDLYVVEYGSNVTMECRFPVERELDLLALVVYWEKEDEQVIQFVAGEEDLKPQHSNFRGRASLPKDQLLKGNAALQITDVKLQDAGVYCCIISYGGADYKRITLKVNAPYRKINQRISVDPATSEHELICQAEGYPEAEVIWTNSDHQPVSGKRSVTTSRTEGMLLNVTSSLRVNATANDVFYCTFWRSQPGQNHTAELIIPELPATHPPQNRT

B1: B15016 (Fab, V domains shown)
VH: EVQLVESGGGLVQPGGSLRLSCAASGYSISSGYYWGWIRQAPGKGLEWIGIIYPSGGGTNYAQKFQGRVTISRDNSKNTLYLQLNSLRAEDTAVYYCARGGGLGFDYWGQGTLVTVSS
VL: DIQLTQSPSSLSASVGDRVTITCRASQTIPSFLNWYQQKPGKAPKLLIYAASSLQSGVPSRFSGSGSGTDFTLTISSLQPEDFATYYCQHYTSWPRQFTFGQGTKVEIKR
notes: Fab from E. coli
Kd [1]: 2.84 nM | Kd [2]: 3.56 nM

B6: B14032 (Fab, V domains shown)
VH: B1 VH
VL: B1 VL with R24Q, T28D, S31T, N34A, H90Q, T92V, Q97G
notes: Fab from E. coli
Kd [1]: 4.84 nM | Kd [2]: 5.11 nM

B10: B13002 (Fab, V domains shown)
VH: EVQLVESGGGLVQPGGSLRLSCAASGYTFSNYGIHWVRQAPGKGLEWIGWIYPSGGGTKYAQKFQGRVTISRDNSKNTLYLQLNSLRAEDTAVYYCAREGGGYGYALDYWGQGTLVTVSS
VL: DIQLTQSPSSLSASVGDRVTITCRASQGVSSYLAWYQQKPGKAPKLLIYDASNLETGVPSRFSGSGSGTDFTLTISSLQPEDFATYYCQQYDAWPYTFGQGTKVEIKR
notes: Fab from E. coli
Kd [2]: 0.251 nM

B11: B14638 (Fab, V domains shown)
VH: B10 VH
VL: DIQLTQSPSSLSASVGDRVTITCRASQSVGSIYLGWYQQKPGKAPKLLIYDASNRATGIPSRFSGSGSGTDFTLTISSLQPEDFATYYCQQYDSWPYTFGQGTKVEIKR
notes: Fab from E. coli
Kd [2]: 0.314 nM

B12: B14622 (Fab, V domains shown)
VH: B10 VH
VL: DIQLTQSPSSLSASVGDRVTITCRASQSVDFYGKSFLDWYQQKPGKAPKLLIYDASNRATGIPSRFSGSGSGTDFTLTISSLQPEDFATYYCQQYDSWPYTFGQGTKVEIKR
notes: Fab from E. coli
Kd [2]: 0.274 nM

B14: B14631 (Fab, V domains shown)
VH: B10 VH
VL: B12 VL with Q27E, Y32F, D38A, R58L, A59E, I62V, S97H
notes: Fab from E. coli
Kd [2]: 0.183 nM

B15: B14617 (Fab, V domains shown)
VH: B10 VH
VL: B12 VL with Q27E, Y32F, D38A, N57S, R58L, A59E, T60S, I62V
notes: Fab from E. coli
Kd [2]: 0.288 nM

B24: B14633 (Fab, V domains shown)
VH: B10 VH
VL: B12 VL with Q27E, Y32H, K34I, D38A, S97H
notes: Fab from E. coli
Kd [2]: 0.322 nM

B27: B14634 (Fab, V domains shown)
VH: B10 VH
VL: B10 VL with G28S, S31P
notes: Fab from E. coli
Kd [2]: 0.207 nM

B28: B13004 (Fab, V domains shown)
VH: B10 VH
VL: B10 VL with V29I, S31P, Y32W, L54R, E55A, V58I, A93S
notes: Fab from E. coli
Kd [2]: 0.3 nM

B29: B14614 (Fab, V domains shown)
VH: B10 VH
VL: B12 VL with Q27E
notes: Fab from E. coli
Kd [2]: 0.353 nM

B30: B14627 (Fab, V domains shown)
VH: B10 VH
VL: B10 VL with G28S, Y32W, N53S, T56S, A93S
notes: Fab from E. coli
Kd [2]: 0.182 nM

B32: B13005 (Fab, V domains shown)
VH: B10 VH
VL: B10 VL with G28S
notes: Fab from E. coli
Kd [2]: 0.346 nM

B34: B14033 (Fab, V domains shown)
VH: B10 VH
VL: B10 VL with V29I, S30G, Y32F, N53S, T56S, A93Y
notes: Fab from E. coli
Kd [2]: 0.875 nM

B35: B14615 (Fab, V domains shown)
VH: B10 VH
VL: B12 VL with D38A, N57S, R58L, A59E, T60S, I62V, S97H
notes: Fab from E. coli
Kd [2]: 0.228 nM

Next, values leading:

Kd [1]: 1.67 nM | Kd [2]: 1.68 nM
B2: B15041 (Fab, V domains shown)
VH: B1 VH
VL: B1 VL with T28S, T92I
notes: Fab from E. coli

Kd [1]: 3.03 nM | Kd [2]: 3.68 nM
B3: B15022 (Fab, V domains shown)
VH: B1 VH
VL: B1 VL with T28S, S53T, H90Q, T92S, Q97L
notes: Fab from E. coli

Kd [1]: 3.48 nM | Kd [2]: 4.52 nM
B4: B15024 (Fab, V domains shown)
VH: B1 VH
VL: B1 VL with T28S, S31T, S53T, T92V, Q97L
notes: Fab from E. coli

Kd [1]: 3.23 nM | Kd [2]: 4.79 nM
B5: B15082 (Fab, V domains shown)
VH: B1 VH
VL: B1 VL with T92G, Q97R
notes: Fab from E. coli

Kd [1]: 2.98 nM | Kd [2]: 4.31 nM
B7: B15074 (Fab, V domains shown)
VH: B1 VH
VL: B1 VL with S53T, T92I, Q97V
notes: Fab from E. coli

Kd [1]: 3.87 nM | Kd [2]: 2.43 nM
B8: B15014 (Fab, V domains shown)
VH: B1 VH
VL: B1 VL with T28D, S31K, N34A, S53T, T92V
notes: Fab from E. coli

Kd [1]: 2.03 nM | Kd [2]: 1.76 nM
B9: B15012 (Fab, V domains shown)
VH: B1 VH
VL: B1 VL with S53T, T92S, Q97G
notes: Fab from E. coli

Kd [2]: 0.502 nM
B13: B14674 (Fab, V domains shown)
VH: B10 VH
VL: B10 VL with G28S, V29I, S30E, S31K, Y32W, N53S, T56S
notes: Fab from E. coli

Kd [2]: 0.248 nM
B16: B14644 (Fab, V domains shown)
VH: B10 VH
VL: B12 VL with Q27E, D38A, S97Y
notes: Fab from E. coli

Kd [2]: 0.163 nM
B17: B14689 (Fab, V domains shown)
VH: B10 VH
VL: B12 VL with N57S, R58L, A59E, T60S, I62V, S97H
notes: Fab from E. coli

Kd [2]: 0.296 nM
B18: B14645 (Fab, V domains shown)
VH: B10 VH
VL: B12 VL with R58L, A59E, I62V, S97A
notes: Fab from E. coli

Kd [2]: 0.189 nM
B19: B14642 (Fab, V domains shown)
VH: B10 VH
VL: B12 VL with D38A, N57S, R58L, A59E, T60S, I62V, S97A
notes: Fab from E. coli

Kd [2]: 0.323 nM
B20: B14673 (Fab, V domains shown)
VH: B10 VH
VL: B12 VL with Q27E, D38A, N57S, R58L, A59E, T60S, I62V
notes: Fab from E. coli

Kd [2]: 0.232 nM
B21: B14654 (Fab, V domains shown)
VH: B10 VH
VL: B10 VL with G28S, S31P, L54R, E55A, V58I
notes: Fab from E. coli

Kd [2]: 0.294 nM
B22: B14652 (Fab, V domains shown)
VH: B10 VH
VL: B10 VL with S31P, Y32W, N53S, T56S
notes: Fab from E. coli

Kd [2]: 0.142 nM
B23: B14658 (Fab, V domains shown)
VH: B10 VH
VL: B12 VL with Y32H
notes: Fab from E. coli

Kd [2]: 0.301 nM
B25: B14651 (Fab, V domains shown)
VH: B10 VH
VL: B12 VL with Q27E, Y32H, D38A, S97H
notes: Fab from E. coli

Kd [2]: 0.369 nM
B26: B14665 (Fab, V domains shown)
VH: B10 VH
VL: B12 VL with D38A, N57S, R58L, A59E, T60S, I62V
notes: Fab from E. coli

Kd [2]: 0.467 nM
B31: B14690 (Fab, V domains shown)
VH: B10 VH
VL: B12 VL with Y32H, K34I, R58L, A59E, I62V
notes: Fab from E. coli

Kd [2]: 0.357 nM
B33: B14650 (Fab, V domains shown)
VH: B10 VH
VL: B12 VL with Q27E, S97H
notes: Fab from E. coli

Kd [2]: 0.543 nM
B36: B14681 (Fab, V domains shown)
VH: B10 VH
VL: B12 VL with Y32H, K34I, S97H
notes: Fab from E. coli
